Laboratory results as given in patent US20210017226A1 (PEPTION, published 2021).
Ends that are not written are not given here.

T1: PTD8 (Ec-AP_159-168), synthetic peptide LVAHVTSRKC (Escherichia coli)
T1 construct: also called control peptide (unrelated) in the Cas9 blots
T1 peptide: LVAHVTSRKC

T2: PTD10 (Hs-PDGF-B_136-145), synthetic peptide IEIVRKKPIFC (human)
T2 peptide: IEIVRKKPIFC

T3: purified horseradish peroxidase (HRP) protein (horseradish, UniProt P00433 31-338)
T3 sequence (looked up): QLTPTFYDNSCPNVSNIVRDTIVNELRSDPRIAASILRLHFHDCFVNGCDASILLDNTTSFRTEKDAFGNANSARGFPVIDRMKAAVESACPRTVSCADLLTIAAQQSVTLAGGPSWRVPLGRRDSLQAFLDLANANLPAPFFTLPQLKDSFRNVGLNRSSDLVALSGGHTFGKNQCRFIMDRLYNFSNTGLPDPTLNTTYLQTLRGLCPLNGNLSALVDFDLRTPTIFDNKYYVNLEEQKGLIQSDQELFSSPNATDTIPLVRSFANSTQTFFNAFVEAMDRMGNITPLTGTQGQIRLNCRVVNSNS

B1: PTD14 (Sp-C9_CAA813-821PAPH), synthetic His-tagged CAAP oligopeptide dimer (designed binder)
peptide: LLQVDVILLCYPENLEQIKIRLFGSGSHHHHHH
modifications: also: dimer
notes: also called sAb dimer; CCAAP sAb dimer
B2: PTD16 (Ec-AP_CAA159-168PAPH), synthetic His-tagged CAAP oligopeptide dimer, parallel and antiparallel (designed binder)
peptide: EYRLYLRALCYPENLSRAYLSYEGSGSHHHHHH
modifications: also: dimer, parallel and antiparallel
B3: PTD18 (Hs-PDGF-B_CAA136-145PAPH), synthetic His-tagged CAAP oligopeptide dimer, parallel and antiparallel (designed binder)
peptide: DLDYAQLRDKCYPENEDRLQSYDLDGSGSHHHHHH
modifications: also: dimer, parallel and antiparallel
notes: also called Anti-PDGF sAb
B4: V5C2-L-HRPC2, purified polypeptide with two CAAP box dimer arms designed to interact with V5 epitope and HRP (designed binder)
chain: MSRKEARELCYPENGLEALIRSGGGSGGGSGGGSYYLRKRILCYPENQVLERSNEGSGSKLLEHHHHHH
B5: PTD20 (2GS6H), synthetic linker-His-tag oligopeptide (peptide)
peptide: GSGSHHHHHH
notes: also called linker-His-tag only; negative control
B6: C9-813-CAA2 (dimer, parallel-linker-antiparallel), recombinant CAAP oligopeptide-AP fusion protein (designed binder, not shown: small tags and cut ends; large carriers)
chain: MHHHHHHELLLSVEVQQLCYPENLEYLFIEKL
notes: also called rAb C9-813-CAA2; dimer construct

Experiments:
[1] = molecular target: T1, PTD8 (Ec-AP_159-168), synthetic peptide …; test: dot blot, peptide spotted on NC membrane, anti-6His Ab-HRP detection
[2] = molecular target: T4, Cas9 protein without any tag (no tag), recombinant Streptococcus pyogenes Cas9 (Streptococcus pyogenes, UniProt Q99ZW2 1-1368); test: dot blot (non-denatured) and western blot (denatured), anti-6His Ab-HRP detection
T4 construct: also called Cas9 (no tag); tagless Cas9

[3] = molecular target: T1, PTD8 (Ec-AP_159-168), synthetic peptide …; test: dot blot, anti-6His Ab-HRP detection
[4] = molecular target: T2, PTD10 (Hs-PDGF-B_136-145), synthetic …; test: dot blot, anti-6His Ab-HRP detection
[5] = molecular target: T3, purified horseradish peroxidase (HRP) …; test: dot blot, HRP captured by V5C2-L-HRPC2 bound to immobilized PTD19, chromogenic substrate
[6] = molecular target: T1, PTD8 (Ec-AP_159-168), synthetic peptide …; test: dot blot, AP fusion as 1st Ab, NBT/BCIP

T4 sequence (Q99ZW2 whole entry): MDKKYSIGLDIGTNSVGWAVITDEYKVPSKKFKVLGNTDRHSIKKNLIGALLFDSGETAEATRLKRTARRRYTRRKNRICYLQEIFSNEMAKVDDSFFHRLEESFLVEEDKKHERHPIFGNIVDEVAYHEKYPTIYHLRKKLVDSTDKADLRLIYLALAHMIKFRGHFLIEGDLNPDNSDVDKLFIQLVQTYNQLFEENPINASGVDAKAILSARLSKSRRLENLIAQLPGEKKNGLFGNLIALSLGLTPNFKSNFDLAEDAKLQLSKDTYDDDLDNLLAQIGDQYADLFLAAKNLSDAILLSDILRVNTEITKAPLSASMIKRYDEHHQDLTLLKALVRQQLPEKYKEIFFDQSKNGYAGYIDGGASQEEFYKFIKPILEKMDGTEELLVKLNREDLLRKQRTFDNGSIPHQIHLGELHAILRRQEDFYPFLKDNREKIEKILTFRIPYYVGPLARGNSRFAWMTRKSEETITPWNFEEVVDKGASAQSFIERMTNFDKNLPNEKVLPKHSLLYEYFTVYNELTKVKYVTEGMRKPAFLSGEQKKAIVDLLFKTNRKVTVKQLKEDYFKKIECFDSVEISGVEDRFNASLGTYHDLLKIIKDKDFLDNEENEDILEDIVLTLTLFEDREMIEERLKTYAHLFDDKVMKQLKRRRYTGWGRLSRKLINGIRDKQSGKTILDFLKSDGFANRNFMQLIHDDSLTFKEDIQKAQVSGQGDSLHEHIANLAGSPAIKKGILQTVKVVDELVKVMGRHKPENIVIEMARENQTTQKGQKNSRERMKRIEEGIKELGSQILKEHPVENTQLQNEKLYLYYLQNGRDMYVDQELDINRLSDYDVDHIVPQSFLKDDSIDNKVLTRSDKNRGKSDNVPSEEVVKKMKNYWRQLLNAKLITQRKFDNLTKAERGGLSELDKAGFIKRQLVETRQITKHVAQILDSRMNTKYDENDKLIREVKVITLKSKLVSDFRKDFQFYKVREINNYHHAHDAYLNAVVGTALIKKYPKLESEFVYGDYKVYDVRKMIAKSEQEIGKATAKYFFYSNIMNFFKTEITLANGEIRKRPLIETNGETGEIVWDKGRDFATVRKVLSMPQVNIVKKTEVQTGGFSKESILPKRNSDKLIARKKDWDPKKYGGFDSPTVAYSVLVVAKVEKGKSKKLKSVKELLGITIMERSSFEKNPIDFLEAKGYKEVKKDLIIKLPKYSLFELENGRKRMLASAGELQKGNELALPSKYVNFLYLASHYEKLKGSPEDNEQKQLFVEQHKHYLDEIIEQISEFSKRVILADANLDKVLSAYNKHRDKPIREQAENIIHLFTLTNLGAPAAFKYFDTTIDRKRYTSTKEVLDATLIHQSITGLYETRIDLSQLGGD

Binder | binding result [3] | binding result [4] | further results
B1 | – | – | binding result [1]: no binding; binding result [2]: binds
B2 | binds | – | –
B3 | – | binds | –
B4 | – | – | binding result [5]: binds
B5 | no binding | no binding | –
B6 | – | – | binding result [6]: no binding
